According to patent US20190367631A1 (Regeneron, published 2019):

T1: full length human MSR1 with a C-terminal Myc tag, on HEK293.Myc.hMSR1 cells (human, UniProt P21757 1-451)
T1 sequence (looked up): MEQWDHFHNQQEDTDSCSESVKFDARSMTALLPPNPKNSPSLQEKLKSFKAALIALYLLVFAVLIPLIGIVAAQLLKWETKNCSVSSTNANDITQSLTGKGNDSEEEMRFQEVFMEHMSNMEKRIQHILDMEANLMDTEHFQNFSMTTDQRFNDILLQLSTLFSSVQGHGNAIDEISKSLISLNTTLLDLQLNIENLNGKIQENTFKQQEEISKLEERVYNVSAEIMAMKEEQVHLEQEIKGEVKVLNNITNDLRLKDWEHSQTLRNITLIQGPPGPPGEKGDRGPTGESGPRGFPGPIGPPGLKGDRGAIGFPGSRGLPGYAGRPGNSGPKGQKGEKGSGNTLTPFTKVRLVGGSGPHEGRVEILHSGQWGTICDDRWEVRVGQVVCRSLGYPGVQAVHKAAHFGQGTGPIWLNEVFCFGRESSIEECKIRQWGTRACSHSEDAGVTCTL

T2: mouse MSR1 on RAW264.7 cells (mouse, UniProt P30204 1-458)
T2 construct: whole, on cells; also called MSR1 positive RAW264.7 cells
T2 sequence (looked up): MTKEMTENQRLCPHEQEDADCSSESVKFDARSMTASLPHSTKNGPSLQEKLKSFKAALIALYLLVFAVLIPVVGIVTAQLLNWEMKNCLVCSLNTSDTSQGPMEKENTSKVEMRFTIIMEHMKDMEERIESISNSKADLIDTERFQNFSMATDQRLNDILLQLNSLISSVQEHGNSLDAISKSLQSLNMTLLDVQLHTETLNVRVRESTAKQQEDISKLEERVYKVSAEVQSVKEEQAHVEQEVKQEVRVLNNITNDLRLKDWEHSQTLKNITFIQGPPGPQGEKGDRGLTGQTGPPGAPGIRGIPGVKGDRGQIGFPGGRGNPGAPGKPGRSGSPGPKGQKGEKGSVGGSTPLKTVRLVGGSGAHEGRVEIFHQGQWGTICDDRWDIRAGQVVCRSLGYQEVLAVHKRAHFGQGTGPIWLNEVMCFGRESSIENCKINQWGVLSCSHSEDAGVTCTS

T3: full length monkey MSR1 on HEK293.mfMSR1 cells (Macaca fascicularis, UniProt A0A2K5UWE2 1-451)
T3 construct: whole, on cells
T3 sequence: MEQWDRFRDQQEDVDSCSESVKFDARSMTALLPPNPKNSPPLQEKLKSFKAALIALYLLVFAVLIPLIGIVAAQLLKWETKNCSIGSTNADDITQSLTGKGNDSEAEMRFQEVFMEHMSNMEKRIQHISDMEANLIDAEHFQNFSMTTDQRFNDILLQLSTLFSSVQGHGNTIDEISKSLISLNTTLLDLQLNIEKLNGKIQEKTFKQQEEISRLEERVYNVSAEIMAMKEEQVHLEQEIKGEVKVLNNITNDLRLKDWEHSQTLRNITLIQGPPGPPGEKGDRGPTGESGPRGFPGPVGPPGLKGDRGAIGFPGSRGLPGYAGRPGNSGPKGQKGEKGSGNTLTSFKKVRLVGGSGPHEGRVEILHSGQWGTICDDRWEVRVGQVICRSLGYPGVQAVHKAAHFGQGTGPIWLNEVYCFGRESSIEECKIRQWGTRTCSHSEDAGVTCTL


Experiments:
[1] = molecular target: T1, full length human MSR1 with a …; assay: cell-based or functional assay
[2] = molecular target: T2, mouse MSR1 on RAW264.7 cells; assay: flow cytometry, RAW264.7 cells
Procedure: To block binding to Fc receptors, RAW264.7 cells were incubated for 30 minutes at 4° C. with 500 pg/mL mouse IgG (Jackson ImmunoResearch, Cat #015-000-003) diluted in staining buffer, while B16F10.9 cells remained in staining buffer. […] The signal to noise (S/N) was determined by calculating the ratio of the anti-MSR1 antibodies or the control antibodies MFI to the unstained sample MFI (Table 11).

[3] = molecular target: T3, full length monkey MSR1 on …; assay: ECL cell binding, HEK293.mfMSR1 cells, 11 nM
Procedure: (§1) All cells were washed once with 1×PBS with Ca²⁺/Mg²⁺ and counted with a Cellometer™ Auto T4 cell counter (Nexcelom Bioscience). Approximately 1.0×10⁴ cells were seeded separately onto 96-well carbon electrode plates [MULTI-ARRAY high bind plate, Meso Scale Diagnostics] and incubated for 1 hour at 37° C. Non-specific binding sites were then blocked by 2% BSA (w/v) in PBS with Ca²⁺/Mg²⁺ for 1 hour at room temperature. THP-1 cells were pre-incubated for 0.5 hours at room temperature in sample dilution buffer with: 1) 1 mg/mL Fc receptor block reagents to block Fc gamma receptors on THP-1 cell surface [whole molecule human IgG (Jackson Immunoresearch, Cat #009-000-003) for wells being tested with anti-MSR1-mFc antibodies or 2) whole molecule mlgG (Jackson Immunoresearch, Cat #015-000-003) for wells being tested with anti-MSR1-hFc antibodies. Antibody binding on HEK293.Myc.hMSR1, HEK293.mfMSR1 and HEK293 cells was tested without Fc receptor block reagents. […] Plates were then washed to remove unbound antibodies an AquaMax2000 plate washer with a cell washing head (MDS Analytical Technologies). […] Plates were washed and developed with Read Buffer (Meso Scale Diagnostics, Cat # R92TD-2) according to manufacturer's recommended procedure and luminescent signals were recorded with a SECTOR Imager 600 (Meso Scale Diagnostics). Luminescence intensity, measured in relative light units (RLU), was recorded to indicate the binding intensity of each antibody at the range of concentrations.

[4] = molecular target: T1, full length human MSR1 with a …; assay: ECL cell binding, HEK293.Myc.hMSR1 cells, 11 nM
Procedure: as §1

Binder | % Inhibition of Dil-Acetylated LDL uptake [1] [%] | % Inhibition of Dil-Oxidized LDL uptake [1] [%] | IC50 of Dil-Acetylated LDL uptake inhibition [1] [nM] | IC50 of Dil-Oxidized LDL uptake inhibition [1] [nM] | MFI [2] [MFI] | S/N (MFI over unstained MFI) [2] | ratio of binding signal (RLU) to isotype control [3] [fold] | ratio of binding signal (RLU) to isotype control [4] [fold]
H1H27766P2-N297Q (antibody, human IgG1, V domains shown, human IgG1 Fc with N297Q; also called H1H27766P-N297Q) VH: EVQLVESGGGLVQPGGSLRLSCAASGFTFSSFAMSWVRQAPGKELEWVSSISGRGGSTYYADSVRGRFTISRDNSKITLYLQMNSLRAEDTAVYYCAKDIVFRYTSSAYWYFDLWGRGTLVTVSS VL: not shown | 38 | 72 | 3.5 | 3.7 | 3810 | 1 | 13 | 20
H1H27761P2-N297Q (antibody, human IgG1, V domains shown, human IgG1 Fc with N297Q; also called H1H27761P-N297Q) VH: EVQLVESGGDLVQPGGSLRLSCSASGFTFNIYAMSWVRQAPGKGLEWVSGISGSGGSTYYADSVKGRFTISRDNSKNTLYFQMNSLRVEDTAVYYCAKKISSSSYYYYAMDVWGQGTTVTVSS VL: not shown | 29 | 43 | > 100 | 9.5 | 3840 | 1 | 15 | 23
H1H27762P2-N297Q (antibody, human IgG1, V domains shown, human IgG1 Fc with N297Q; also called H1H27762P-N297Q) VH: QVQLVQSGAEVKKPGSSVKVSCKASGGTFSRYDISWVRQAPGQGLEWMGGIIPIFGTSNYAQKFQGRVTITTDESTSTVYMELSSLRSEDTAVYYCARGGRYGWFDPWGQGTLVTVSS VL: not shown | 38 | 78 | 2.9 | 4 | 3520 | 1 | 25 | 33
H1H21234N-N297Q (antibody, human IgG1, V domains shown, human IgG1 Fc with N297Q point mutation (EU numbering)) VH: QVQLQESGPGLVKPSETLSLTCTVTGGSISRNYWSWIRQPPGKGLEWIGYIYYSGSIDYNPSLKSRVTISVDTSKNQFSLKLSSMTAADTAVYYCARDRWNWKYGMDVWGQGTTVIVSS VL: EIVLTQSPGTLSLSPGERATLSCRASQTVRNNYLAWYHQKPGQAPRLLIYGASSRATGIPDRFSGSGSGTDFTLTISRLEPEDFTVYYCHQYGNSPWTFGQGTKMEIKR | 34 | 52 | 1.3 | 6.1 | 7050 | 3 | 35 | 43
H1H27729P-N297Q (antibody, human IgG1, V domains shown, human IgG1 Fc with N297Q) VH: QVQLVESGGGLVKPGGSLRLSCAASGFIFSDYYMSWIRQAPGKGLEWVSYISSSGTTIYGDSVKGRFTMSRDNAKNSLYLQMNSLRAEDTAVYYCARNYALFDYWGQGTLVTVSS VL: DIQMTQSPSSLSASVGDRVTITCQASQDISKYLNWYQQKPGKAPKLLIYYTSNLETGVPSRFSGSGSGTDFTFTISSLQPEDIATYYCHQSDYLPFTFGPGTKVDIKR | 28 |  | 1.2 |  | 3480 | 1 | 6 | 17
H1H27759P2-N297Q (antibody, human IgG1, V domains shown, human IgG1 Fc with N297Q; also called H1H27759P-N297Q) VH: EVQLVESGGGFVQPGGSLRLSCAASGFTFSSYAMSWVRQAPGKGLEWVSAISGTGSNTYYADSVKGRFTISRDNSKNTLYLQMNSLRAEDTAVYYCAKDRVTTVTYYFDYWGQGTLVTVSS VL: not shown | 48 | 74 | > 100 | > 10 | 3290 | 1 | 25 | 23
H1H27734P-N297Q (antibody, human IgG1, V domains shown, human IgG1 Fc with N297Q) VH: EVQLVESRGGLVQPGGSLRLSCAASGFTFSSYAMSWVRQAPGKGLEWVSAISGSGGSTFYADSVKGRFTISRDNSKNTVYLQMNSLRAEDTAVYYCAKALVLRFLEWLGDYWGQGTLVTVSS VL: DIQMTQSPSTLSASVGDRVTITCRASQSISSWLAWFQQKPGKAPKLLIYKASSLESGVPSRFSGSGSGTEFTLTISSLQPDDFATYYCQQYKSYWTFGQGTKVEIKR |  | 22 |  | 5.5 | 4780 | 1 | 28 | 40
H1H27731P-N297Q (antibody, V domains shown, human IgG1 Fc with N297Q) VH: QLQLQESGPGLVKPSETLSLTCTVSGGSISRISYYWGWIRQPPGKGLEWIGSIYDSGSTYYNPSLKSRVTISIDTSKNQFSLKLSSVTAADTAVYYCVRYSSSSAFAFDYWGQGTLVTVSS VL: DIQMTQSPSSVSASVGDRVTITCRASQGISSWLAWYQQKPGKAPKLLIYAASSLQSGVPSRFSGSGSGTDFTLTISSLQPEDFATYYCQQANSFPFTFGPGTKVDIKR | 37 | 62 | 1.8 | > 10 | 3510 | 1 | 43 | 48
